Bridge positions count the residues as written; N and C are the ends. Square brackets hold non-standard residues; d marks the D form. 1Nal = N[C@@H](Cc1cccc2ccccc12)C(=O)O; hArg = N=C(N)NCCCC[C@H](N)C(=O)O; Cit = NC(=O)NCCC[C@H](N)C(=O)O; Aze = O=C(O)[C@@H]1CCN1; Aib = CC(C)(N)C(=O)O
Target: CGRP1 receptor (CRLR/RAMP1 complex) of human neuroblastoma SK-N-MC cells (human, UniProt Q16602 23-461; O60894 27-148)
Test: cell-based or functional assay

Chain of CGRP1 receptor (CRLR/RAMP1 complex) of human neuroblastoma SK-N-MC cells (Q16602 23-461, chain 1 of 2): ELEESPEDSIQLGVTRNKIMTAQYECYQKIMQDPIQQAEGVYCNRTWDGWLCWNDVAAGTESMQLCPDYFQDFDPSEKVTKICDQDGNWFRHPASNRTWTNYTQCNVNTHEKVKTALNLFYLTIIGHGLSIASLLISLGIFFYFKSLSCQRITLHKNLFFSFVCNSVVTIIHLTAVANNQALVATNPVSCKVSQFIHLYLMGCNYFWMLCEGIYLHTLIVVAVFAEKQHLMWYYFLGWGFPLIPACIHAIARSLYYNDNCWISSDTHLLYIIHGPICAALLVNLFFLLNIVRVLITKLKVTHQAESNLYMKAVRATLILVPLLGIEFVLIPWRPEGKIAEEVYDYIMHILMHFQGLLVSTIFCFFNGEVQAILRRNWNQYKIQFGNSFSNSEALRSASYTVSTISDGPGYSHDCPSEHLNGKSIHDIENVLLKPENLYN
Chain of CGRP1 receptor (CRLR/RAMP1 complex) of human neuroblastoma SK-N-MC cells (O60894 27-148, chain 2 of 2): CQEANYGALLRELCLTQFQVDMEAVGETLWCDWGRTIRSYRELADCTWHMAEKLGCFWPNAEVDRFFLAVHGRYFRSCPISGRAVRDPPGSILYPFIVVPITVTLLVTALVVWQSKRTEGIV

B1: SEQ ID NO 893 (peptide)
peptide: Ac-WVEHRLKGLLS[Cit]SGGVVRKNFVPTDVGPFAF-NH2
modifications: lactam 3-7
SMILES: CC(=O)N[C@@H](Cc1c[nH]c2ccccc12)C(=O)N[C@H](C(=O)N[C@H]1CCC(=O)NCCCC[C@@H](C(=O)NCC(=O)N[C@@H](CC(C)C)C(=O)N[C@@H](CC(C)C)C(=O)N[C@@H](CO)C(=O)N[C@@H](CCCNC(N)=O)C(=O)N[C@@H](CO)C(=O)NCC(=O)NCC(=O)N[C@H](C(=O)N[C@H](C(=O)N[C@@H](CCCNC(=N)N)C(=O)N[C@@H](CCCCN)C(=O)N[C@@H](CC(N)=O)C(=O)N[C@@H](Cc2ccccc2)C(=O)N[C@H](C(=O)N2CCC[C@H]2C(=O)N[C@H](C(=O)N[C@@H](CC(=O)O)C(=O)N[C@H](C(=O)NCC(=O)N2CCC[C@H]2C(=O)N[C@@H](Cc2ccccc2)C(=O)N[C@@H](C)C(=O)N[C@@H](Cc2ccccc2)C(N)=O)C(C)C)[C@@H](C)O)C(C)C)C(C)C)C(C)C)NC(=O)[C@H](CC(C)C)NC(=O)[C@H](CCCNC(=N)N)NC(=O)[C@H](Cc2c[nH]cn2)NC1=O)C(C)C
  Peptide IC50: 1.64 nM

B2: SEQ ID NO 894 (peptide)
peptide: Ac-WVEH[hArg]LKGLLS[Cit]SGGVVRKNFVPTDVGPFAF-NH2
modifications: lactam 3-7
  Peptide IC50: 1.26 nM

B3: PEG-peptide of SEQ ID NO 894 (peptide)
peptide: Ac-WVEH[hArg]LKGLLS[Cit]SGGVVRKNFVPTDVGPFAF-NH2
modifications: lactam 3-7; also: PEG-conjugated, in most cases at Lys25
  PEG-peptide IC50: 3.54 nM

B4: SEQ ID NO 895 (peptide)
peptide: Ac-WVEHRLKGLLS[Cit]SGGVVRKNFVPTDVGPFAF-NH2
modifications: lactam 3-7
SMILES: CC(=O)N[C@@H](Cc1c[nH]c2ccccc12)C(=O)N[C@H](C(=O)N[C@H]1CCC(=O)NCCCC[C@@H](C(=O)NCC(=O)N[C@@H](CC(C)C)C(=O)N[C@@H](CC(C)C)C(=O)N[C@@H](CO)C(=O)N[C@@H](CCCNC(N)=O)C(=O)N[C@@H](CO)C(=O)NCC(=O)NCC(=O)N[C@H](C(=O)N[C@H](C(=O)N[C@@H](CCCNC(=N)N)C(=O)N[C@@H](CCCCN)C(=O)N[C@@H](CC(N)=O)C(=O)N[C@@H](Cc2ccccc2)C(=O)N[C@H](C(=O)N2CCC[C@H]2C(=O)N[C@H](C(=O)N[C@@H](CC(=O)O)C(=O)N[C@H](C(=O)NCC(=O)N2CCC[C@H]2C(=O)N[C@@H](Cc2ccccc2)C(=O)N[C@@H](C)C(=O)N[C@@H](Cc2ccccc2)C(N)=O)C(C)C)[C@@H](C)O)C(C)C)C(C)C)C(C)C)NC(=O)[C@H](CC(C)C)NC(=O)[C@H](CCCNC(=N)N)NC(=O)[C@H](Cc2c[nH]cn2)NC1=O)C(C)C
  Peptide IC50: 2.8 nM

B5: SEQ ID NO 896 (peptide)
peptide: Ac-WVEHRLKGLLS[Cit]SGGVVRKNFVPTDVGPFAF-NH2
modifications: lactam 3-7
SMILES: CC(=O)N[C@@H](Cc1c[nH]c2ccccc12)C(=O)N[C@H](C(=O)N[C@H]1CCC(=O)NCCCC[C@@H](C(=O)NCC(=O)N[C@@H](CC(C)C)C(=O)N[C@@H](CC(C)C)C(=O)N[C@@H](CO)C(=O)N[C@@H](CCCNC(N)=O)C(=O)N[C@@H](CO)C(=O)NCC(=O)NCC(=O)N[C@H](C(=O)N[C@H](C(=O)N[C@@H](CCCNC(=N)N)C(=O)N[C@@H](CCCCN)C(=O)N[C@@H](CC(N)=O)C(=O)N[C@@H](Cc2ccccc2)C(=O)N[C@H](C(=O)N2CCC[C@H]2C(=O)N[C@H](C(=O)N[C@@H](CC(=O)O)C(=O)N[C@H](C(=O)NCC(=O)N2CCC[C@H]2C(=O)N[C@@H](Cc2ccccc2)C(=O)N[C@@H](C)C(=O)N[C@@H](Cc2ccccc2)C(N)=O)C(C)C)[C@@H](C)O)C(C)C)C(C)C)C(C)C)NC(=O)[C@H](CC(C)C)NC(=O)[C@H](CCCNC(=N)N)NC(=O)[C@H](Cc2c[nH]cn2)NC1=O)C(C)C
  Peptide IC50: 1.61 nM

B6: SEQ ID NO 897 (peptide)
peptide: Ac-[1Nal]VEH[hArg]LKGLLS[Cit]SGGVVRKNFVPTDVGPFAF-NH2
modifications: lactam 3-7
SMILES: CC(=O)N[C@@H](Cc1cccc2ccccc12)C(=O)N[C@H](C(=O)N[C@H]1CCC(=O)NCCCC[C@@H](C(=O)NCC(=O)N[C@@H](CC(C)C)C(=O)N[C@@H](CC(C)C)C(=O)N[C@@H](CO)C(=O)N[C@@H](CCCNC(N)=O)C(=O)N[C@@H](CO)C(=O)NCC(=O)NCC(=O)N[C@H](C(=O)N[C@H](C(=O)N[C@@H](CCCNC(=N)N)C(=O)N[C@@H](CCCCN)C(=O)N[C@@H](CC(N)=O)C(=O)N[C@@H](Cc2ccccc2)C(=O)N[C@H](C(=O)N2CCC[C@H]2C(=O)N[C@H](C(=O)N[C@@H](CC(=O)O)C(=O)N[C@H](C(=O)NCC(=O)N2CCC[C@H]2C(=O)N[C@@H](Cc2ccccc2)C(=O)N[C@@H](C)C(=O)N[C@@H](Cc2ccccc2)C(N)=O)C(C)C)[C@@H](C)O)C(C)C)C(C)C)C(C)C)NC(=O)[C@H](CC(C)C)NC(=O)[C@H](CCCCNC(=N)N)NC(=O)[C@H](Cc2c[nH]cn2)NC1=O)C(C)C
  Peptide IC50: 2.25 nM

B7: PEG-peptide of SEQ ID NO 897 (peptide)
peptide: Ac-[1Nal]VEH[hArg]LKGLLS[Cit]SGGVVRKNFVPTDVGPFAF-NH2
modifications: lactam 3-7; also: PEG-conjugated, in most cases at Lys25
  PEG-peptide IC50: 4.1 nM

B8: SEQ ID NO 898 (peptide)
peptide: Ac-[Aib]WVEH[hArg]LKGLLS[Cit]SGGVVRKNFVPTDVGPFAF-NH2
modifications: lactam 4-8
SMILES: CC(=O)NC(C)(C)C(=O)N[C@@H](Cc1c[nH]c2ccccc12)C(=O)N[C@H](C(=O)N[C@H]1CCC(=O)NCCCC[C@@H](C(=O)NCC(=O)N[C@@H](CC(C)C)C(=O)N[C@@H](CC(C)C)C(=O)N[C@@H](CO)C(=O)N[C@@H](CCCNC(N)=O)C(=O)N[C@@H](CO)C(=O)NCC(=O)NCC(=O)N[C@H](C(=O)N[C@H](C(=O)N[C@@H](CCCNC(=N)N)C(=O)N[C@@H](CCCCN)C(=O)N[C@@H](CC(N)=O)C(=O)N[C@@H](Cc2ccccc2)C(=O)N[C@H](C(=O)N2CCC[C@H]2C(=O)N[C@H](C(=O)N[C@@H](CC(=O)O)C(=O)N[C@H](C(=O)NCC(=O)N2CCC[C@H]2C(=O)N[C@@H](Cc2ccccc2)C(=O)N[C@@H](C)C(=O)N[C@@H](Cc2ccccc2)C(N)=O)C(C)C)[C@@H](C)O)C(C)C)C(C)C)C(C)C)NC(=O)[C@H](CC(C)C)NC(=O)[C@H](CCCCNC(=N)N)NC(=O)[C@H](Cc2c[nH]cn2)NC1=O)C(C)C
  Peptide IC50: 3.18 nM

B9: PEG-peptide of SEQ ID NO 898 (peptide)
peptide: Ac-[Aib]WVEH[hArg]LKGLLS[Cit]SGGVVRKNFVPTDVGPFAF-NH2
modifications: lactam 4-8; also: PEG-conjugated, in most cases at Lys25
  PEG-peptide IC50: 40.7 nM

B10: SEQ ID NO 899 (peptide)
peptide: Ac-WVEH[hArg]LKGLLS[Cit]SG[Aze]VVRKNFVPTDVGPFAF-NH2
modifications: lactam 3-7
  Peptide IC50: 1.62 nM

Reference: patent publication US20080020978A1 (Amgen, published 2008)
